Key:
[1] = BTK FAC plasma stability assay, mouse plasma; type: in vitro ADME; conditions: for half-life at 5 µM / Plasma stability (h) mouse: incubation to 24 h
Protocol: (§1) Plasma stability was conducted in Dulbecco's PBS buffer, mouse plasma, rat plasma or human plasma frozen with K3-EDTA from BiolVT). Thawed plasma was centrifuged prior to warming for 5 minutes at 37° C. Working solutions were prepared from 10 mM DMSO solution to 500 µM in acetonitrile:water (1:1); 2 µL of working solution was added to 198 µL blank plasma or PBS and mixed manually. 4×45 µL of spiked matrix was aliquoted into glass incubation plates (96-well DW glass microplate) and sealed with blue silicon/PTFE seal; then incubated on a Thermo shaker (38° C. 300 RPM). Samples were prepared at 0, 2, 6 and 24 h timepoints, by protein precipitation with chilled acetonitrile containing internal standard Glyburide (0.2 µM). Precipitated samples were shaken for 10 minutes and stored at 4° C. until completion of the study. Following precipitation of the terminal sample, samples were frozen at −80° C. for 1 hour. Samples were then thawed prior to centrifugation (20 minutes, 4500 RPM at 4° C.). 50 µL of supernatant of each sample was transferred to 384 well analysis plate containing 30 µL of water. Semi quantitative analysis (analyte: internal standard peak area ratio) was performed by LC-MS/MS using a Sciex QTrap 5500.

[2] = BTK FAC plasma stability assay, rat plasma; type: in vitro ADME; conditions: for half-life at 5 µM / Plasma stability (h) rat: incubation to 24 h
Protocol: as §1

[3] = BTK FAC plasma stability assay, dog plasma; type: in vitro ADME; conditions: for half-life at 5 µM: read-out: Plasma stability (h) dog (converted)
[4] = BTK FAC plasma stability assay, PBS buffer arm; type: physicochemical; conditions: for Plasma stability (h) PBS: incubation to 24 h
Protocol: as §1

SMILES	half-life at 5 µM [1] [h]	half-life at 5 µM [2] [h]	half-life at 5 µM [3] [h]	Plasma stability (h) PBS [4] [h]	% Release of degrader after 24 h mouse [1] [%]	Plasma stability (h) mouse [1] [h]	% Release of degrader after 24 h rat [2] [%]	Plasma stability (h) rat [2] [h]	Plasma stability (h) dog [3] [h]	% Release of degrader after 24 h dog [3] [%]	% Release of degrader after 24 h PBS [4] [%]
CCCCCCCCCCCN(C(=O)CCCCCCCCCC(=O)O)[C@@H](CCC(=O)NCC(=O)O[C@H]1CN(C(=O)Nc2cc(F)cc(-c3ncnc4[nH]c(-c5ccc(CCN6CCC7(CC6)CCN(C(=O)c6ccc(OC)c(N8CCC(=O)NC8=O)c6)CC7)cc5)cc34)c2C)C[C@@H]1CC(C)C)C(=O)O [Example A31, 11-(((S)-1-Carboxy-4-((2-(((3R,4S)-1-((3-(6-(4-(2-(9-(3-(2,4-dioxotetrahydropyrimidin-1(2H)-yl)-4-methoxybenzoyl)-3,9-diazaspiro[5.5]undecan-3-yl)ethyl)phenyl)-7H-pyrrolo[2,3-d]pyrimidin-4-yl)-5-fluoro-2-methylphenyl)carbamoyl)-4-isobutylpyrrolidin-3-yl)oxy)-2-oxoethyl)amino)-4-oxobutyl)(undecyl)amino)-11-oxoundecanoic acid]	< 1	1.2	33.6	>72	–	–	–	–	–	–	–
CCCCCCCCCCCN(C(=O)CCCCCCCCCC(=O)O)C(CCC(=O)NCCOCCOCCOCCOCCOCCOCCOCCOCCOCCOCCOCCOCCOCCOCCOCCOCCOCCOCCOCCOCCOCCOCCOCCOCCC(=O)NCC(=O)OC(C)(C)c1ccc(C(=O)Nc2cc(F)cc(-c3ncnc4[nH]c(-c5ccc(CCN6CCC7(CC6)CCN(C(=O)c6ccc(OC)c(N8CCC(=O)NC8=O)c6)CC7)cc5)cc34)c2C)c(F)c1)C(=O)O (stereo not shown) [Example A32, 86-Carboxy-2-(4-((3-(6-(4-(2-(9-(3-(2,4-dioxotetrahydropyrimidin-1(2H)-yl)-4-methoxybenzoyl)-3,9-diazaspiro[5.5]undecan-3-yl)ethyl)phenyl)-7H-pyrrolo[2,3-d]pyrimidin-4-yl)-5-fluoro-2-methylphenyl)carbamoyl)-3-fluorophenyl)-2-methyl-4,7,83,88-tetraoxo-87-undecyl-3,10,13,16,19,22,25,28,31,34,37,40,43,46,49,52,55,58,61,64,67,70,73,76,79-pentacosaoxa-6,82,87-triazaoctanonacontan-98-oic acid]	–	–	–	>48	5.8	27	6.1	20.8	37.3	4.7	1
CCCCCCCCCCCN(C(=O)CCCCCCCCCC(=O)O)[C@H](CCC(=O)NCCOCCOCCOCCOCCOCCOCCOCCOCCOCCOCCOCCOCCC(=O)NCC(=O)OC(C)(C)c1ccc(C(=O)Nc2cc(F)cc(-c3ncnc4[nH]c(-c5ccc(CCN6CCC7(CC6)CCN(C(=O)c6ccc(OC)c(N8CCC(=O)NC8=O)c6)CC7)cc5)cc34)c2C)c(F)c1)C(=O)O [Example A3, (R)-50-Carboxy-2-(4-((3-(6-(4-(2-(9-(3-(2,4-dioxotetrahydropyrimidin-1(2H)-yl)-4-methoxybenzoyl)-3,9-diazaspiro[5.5]undecan-3-yl)ethyl)phenyl)-7H-pyrrolo[2,3-d]pyrimidin-4-yl)-5-fluoro-2-methylphenyl)carbamoyl)-3-fluorophenyl)-2-methyl-4,7,47,52-tetraoxo-51-undecyl-3,10,13,16,19,22,25,28,31,34,37,40,43-tridecaoxa-6,46,51-triazadohexacontan-62-oic acid]	–	–	–	>48	5.2	>48	9	>48	44.4	9.7	1.9
CCCCCCCCCCCN(C(=O)CCCCCCCCCC(=O)O)[C@@H](CCC(=O)NCC(=O)OC(C)(C)c1ccc(C(=O)Nc2cc(F)cc(-c3ncnc4[nH]c(-c5ccc(CCN6CCC7(CC6)CCN(C(=O)c6ccc(OC)c(N8CCC(=O)NC8=O)c6)CC7)cc5)cc34)c2C)c(F)c1)C(=O)O [Example A6, (S)-11-((1-Carboxy-4-((2-((2-(4-((3-(6-(4-(2-(9-(3-(2,4-dioxotetrahydropyrimidin-1(2H)-yl)-4-methoxybenzoyl)-3,9-diazaspiro[5.5]undecan-3-yl)ethyl)phenyl)-7H-pyrrolo[2,3-d]pyrimidin-4-yl)-5-fluoro-2-methylphenyl)carbamoyl)-3-fluorophenyl)propan-2-yl)oxy)-2-oxoethyl)amino)-4-oxobutyl)(undecyl)amino)-11-oxoundecanoic acid]	10.7	36.6	12.7	>48	37.4	–	21.1	–	–	4.6	0.4
CCCCCCCCCCCN(C(=O)CCCCCCCCCC(=O)O)C(CCC(=O)NCCOCCOCCOCCOCCC(=O)NCC(=O)O[C@H]1CN(C(=O)Nc2cc(F)cc(-c3ncnc4[nH]c(-c5ccc(CCN6CCC7(CC6)CCN(C(=O)c6ccc(OC)c(N8CCC(=O)NC8=O)c6)CC7)cc5)cc34)c2C)C[C@@H]1CC(C)C)C(=O)O (stereo partly drawn) [Example A30, 23-Carboxy-1-(((3R,4S)-1-((3-(6-(4-(2-(9-(3-(2,4-dioxotetrahydropyrimidin-1(2H)-yl)-4-methoxybenzoyl)-3,9-diazaspiro[5.5]undecan-3-yl)ethyl)phenyl)-7H-pyrrolo[2,3-d]pyrimidin-4-yl)-5-fluoro-2-methylphenyl)carbamoyl)-4-isobutylpyrrolidin-3-yl)oxy)-1,4,20,25-tetraoxo-24-undecyl-7,10,13,16-tetraoxa-3,19,24-triazapentatriacontan-35-oic acid]	–	–	–	>72	–	<1	–	–	–	–	–
CCCCCCCCCCCN(C(=O)CCCCCCCCCC(=O)O)C(CCC(=O)NCCOCCOCCOCCOCCC(=O)NCC(=O)OC(C)(C)c1ccc(C(=O)Nc2cc(F)cc(-c3ncnc4[nH]c(-c5ccc(CCN6CCC7(CC6)CCN(C(=O)c6ccc(OC)c(N8CCC(=O)NC8=O)c6)CC7)cc5)cc34)c2C)c(F)c1)C(=O)O (stereo not shown) [Example A7, 26-Carboxy-2-(4-((3-(6-(4-(2-(9-(3-(2,4-dioxotetrahydropyrimidin-(2H)-yl)-4-methoxybenzoyl)-3,9-diazaspiro[5.5]undecan-3-yl)ethyl)phenyl)-7H-pyrrolo[2,3-d]pyrimidin-4-yl)-5-fluoro-2-methylphenyl)carbamoyl)-3-fluorophenyl)-2-methyl-4,7,23,28-tetraoxo-27-undecyl-3,10,13,16,19-pentaoxa-6,22,27-triazaoctatriacontan-38-oicacid]	–	–	–	>48	53.6	10.1	–	–	–	–	1.5

From US20240216513A1, “FATTY ACID-BIFUNCTIONAL DEGRADER CONJUGATES AND THEIR METHODS OF USE” (Novartis AG, priority 2021, published 2024)
